Experimental data: paper PMC8836243
Like-named read-outs stand apart in the source and are kept apart here.

How the values were obtained:
Human CCR7 WT (human) [1] = molecular target: Human CCR7 WT (human) (UniProt P32248)
Human CCR7 WT (human) [2] = molecular target: Human CCR7 WT (human) (UniProt P32248); remark: listed apart in the source

Chain of UniProt P32248 (P32248 25-378): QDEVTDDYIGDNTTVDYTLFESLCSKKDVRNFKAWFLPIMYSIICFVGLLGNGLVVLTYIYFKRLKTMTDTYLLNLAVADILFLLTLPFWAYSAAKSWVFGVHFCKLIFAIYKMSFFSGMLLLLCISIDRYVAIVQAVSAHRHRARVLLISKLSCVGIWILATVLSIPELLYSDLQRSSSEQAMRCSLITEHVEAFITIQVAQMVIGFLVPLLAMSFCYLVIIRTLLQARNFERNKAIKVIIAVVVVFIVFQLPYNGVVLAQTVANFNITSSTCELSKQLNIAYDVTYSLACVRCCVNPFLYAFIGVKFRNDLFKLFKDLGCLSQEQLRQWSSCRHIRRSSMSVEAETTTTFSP

Substance	increase in potency in Gαi signalling (BRET) with 10 μM long C21TP (CCL21 81-111) added (Human CCR7 WT (human) [1]) [fold]	increase in potency in Gαi signalling (BRET) with 10 μM short C21TP (CCL21 89-106) added (Human CCR7 WT (human) [1]) [fold]	potency in Gαi signalling (BRET), against WT CCL19 (Human CCR7 WT (human) [1]) [fold]	increase in potency in Gαi signalling (BRET) with 10 μM long C21TP (CCL21 81-111) added (Human CCR7 WT (human) [2]) [fold]	increase in potency in Gαi signalling (BRET) with 10 μM short C21TP (CCL21 89-106) added (Human CCR7 WT (human) [2]) [fold]
CCL19 K71A K73A R74A R75A (CCL19 AMAAA^71-75) (ligand)	3	3.5	22		
CCL21 1-91 C80A (from UniProt O00585 24-114) (ligand)				19.7	16.6
